US20240390418A1 (MINERVA BIOTECHNOLOGIES, published 2024)

B11: PSMGFR peptide (peptide)
peptide: GTINVHDVETQFNQYKTEAASRYNLTISDVSVSDVPFPFSAQSGA
notes: also called MUC1* peptide

What was measured:
[1] = target: B11; assay: ELISA, peptide on plate (FIG. 201A)
Method: (§1) FIG. 201A-201C show graphs of ELISA assays to determine the binding of another set of antibodies generated by immunizing animals with the PSMGFR peptide. […] F3, B12, B2, B7, B9, 8C7F3 and H11 all bound to the PSMGFR peptide and to the N-10 peptide.
(§2) This same ELISA assay was performed on the antibodies of the invention (FIGS. 64-66 and FIG. 201). Note that only 20A10 exactly matches the binding profile of MNC2 and MNE6. 25E6, 28F9 and 18G12 are all able to bind to the N-10 peptide. 18B4 is the only antibody raised against the PSMGFR peptide that requires the 10 most N-terminal amino acids of the peptide. The color of the bars for each antibody in the ELISA graph are color coded to match the deductive cognate sequence, or a portion thereof, of that antibody. In addition, another set of antibodies was assayed by ELISA (FIG. 201). Of this set, B12, B2, B7, B9, 8C7F3, and H11 bound to the PSMGFR peptide, bound to the N-10 peptide, but not to the C-10 peptide (FIG. 201). Although these antibodies were raised against the N+20/C-27 peptide, all but one, 45C11, still bind to the PSMGFR peptide, albeit at the N-terminal portion of PSMGFR.

[2] = target: T1, C-10 peptide; assay: ELISA, peptide on plate (FIG. 201C)
T1 construct: also called PSMGFR C-10; PSMGFR minus 10 amino acids from the C-terminus
T1 peptide: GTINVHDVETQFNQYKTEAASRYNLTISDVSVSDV
Method: as §1, §2

[3] = target: T2, N-10 peptide; assay: ELISA, peptide on plate (FIG. 201B)
T2 construct: also called PSMGFR N-10; PSMGFR minus 10 amino acids from the N-terminus
T2 peptide: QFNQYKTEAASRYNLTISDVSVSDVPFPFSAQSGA
Method: as §1, §2

[4] = target: T3, N-10/C-5 peptide; assay: ELISA, peptide on plate (FIG. 69)
T3 peptide: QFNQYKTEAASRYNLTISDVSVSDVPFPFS

[5] = target: T4, N-19 peptide; assay: ELISA, peptide on plate (FIG. 69)
T4 peptide: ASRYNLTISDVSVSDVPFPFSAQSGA

[6] = target: T5, N-30 peptide; assay: ELISA, peptide on plate (FIG. 69)
T5 peptide: SVSDVPFPFSAQSGA

[7] = target: T6, N-19/C-5 peptide; assay: ELISA, peptide on plate (FIG. 69)
T6 peptide: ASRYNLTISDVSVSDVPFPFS

[8] = target: T7, N-26 peptide; assay: ELISA, peptide on plate (FIG. 69)
T7 peptide: ISDVSVSDVPFPFSAQSGA

[9] = target: T2, N-10 peptide; assay: ELISA, peptide on plate (FIG. 69)
[10] = target: B11; assay: ELISA, PSMGFR peptide on plate (FIG. 5)
Method: Humanized MNC2 scFv is then incubated with the surface, washed and detected according to standard methods.

[11] = target: T1, C-10 peptide; assay: ELISA, peptide on plate (FIG. 9)
[12] = target: B11; assay: ELISA, peptide on plate (FIG. 9)
[13] = target: T2, N-10 peptide; assay: ELISA, peptide on plate (FIG. 9)
[14] = target: B11; assay: peptide ELISA, told in tissue legend
[15] = target: T2, N-10 peptide; assay: peptide ELISA, told in tissue legend
[16] = target: T1, C-10 peptide; assay: peptide ELISA
[17] = target: T1, C-10 peptide; assay: ELISA, peptide on plate (FIG. 64)
[18] = target: T8, N+9/C-9 peptide; assay: ELISA, peptide on plate (FIG. 64)
T8 peptide: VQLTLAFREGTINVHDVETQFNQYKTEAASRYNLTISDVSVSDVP

[19] = target: B11; assay: peptide binding, told in Western blot legend
[20] = target: T2, N-10 peptide; assay: ELISA, peptide on plate (FIG. 64)
[21] = target: T9, NME7AB (Homo sapiens (Human), UniProt Q9Y5B8 92-376); assay: ELISA, peptide on plate (FIG. 2A)
T9 construct: NME7A in the text appears to be NME7AB; also called NM23-H7; NME7A
T9 sequence: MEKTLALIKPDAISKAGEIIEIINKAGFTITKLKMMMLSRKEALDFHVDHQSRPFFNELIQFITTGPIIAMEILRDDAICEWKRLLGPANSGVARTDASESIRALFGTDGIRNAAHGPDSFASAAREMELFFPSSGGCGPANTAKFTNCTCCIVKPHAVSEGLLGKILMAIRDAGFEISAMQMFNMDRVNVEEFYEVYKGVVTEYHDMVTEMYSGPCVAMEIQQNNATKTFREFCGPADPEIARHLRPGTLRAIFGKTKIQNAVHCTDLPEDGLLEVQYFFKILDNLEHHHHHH
Method: FIGS. 2A-2I show results of ELISA assays. MUC1* peptides PSMGFR, PSMGFR minus 10 amino acids from the N-terminus aka N-10, or PSMGFR minus 10 amino acids from the C-terminus, aka C-10 are immobilized on the plate and the following are assayed for binding: NME7-AB (FIG. 2A), MNC2 monoclonal antibody (FIG. 2B), MNE6 monoclonal antibody (FIG. 2C), or dimeric NME1 (FIG. 2D). […] MUC1* peptides PSMGFR minus 10 amino acids from the N-terminus aka N-10, or PSMGFR minus 10 amino acids from the C-terminus, aka C-10, are immobilized on the plate and the following are assayed for binding: MNC3 (FIG. 2E) and MNC8 (FIG. 2F).

B1: monoclonal antibody B2 (antibody, V domains shown)
VH: EVVLVESGGGLVEPGGSLKLSCVASGFAFSTFAMSWIRQTPEKRLEWVAAISNGGGYTYYPDTLKGRFSISRDNAKNTLYLQMSSLRSEDTAVYYCARRYYDLYFDLWGRGTSLIVSS
VL: DILMTQTPLSLPVSLGDQASISCRSSQNIVHSNGNTYLEWYLQKPGQSPKLLIYKVSNRFSGVPDRFSGSGSGTDFTLKISRVEAEDLGVYYCFQDSHVPLTFGAGTRLELK
notes: Raised against PSMGFR
[1]
  binding result: binds
[2]
  binding result: no binding
[3]
  binding result: binds

B2: monoclonal antibody B7 (antibody, V domains shown)
VH: EVQVVESGGDLVKPGGSLKLSCAASGFTFSRYGMSWVRQTPDKRLEWVATISSGGTYIYYPDSVKGRFTISRDNAKNTLYLQMSSLKSEDTAMYYCARDNYGSSYDYAMDYWGQGTSVTVSS
VL: DVLMTQTPLSLPVSLGDQASISCRSSQTIVHSNGNTYLEWYLQKPGQSPKLLIYKVSNRFSGVPDRFSGSGSGTDFTLKISRVEAEDLGVYYCFQDSHVPLTFGAGTKLELK
notes: Raised against PSMGFR
[1]
  binding result: binds
[2]
  binding result: no binding
[3]
  binding result: binds

B3: monoclonal antibody 17H6 (antibody, V domains shown)
VH: EVKLVESGGGLVQPGGSLRLSCATSGFTFTDYYMSWVRQPPRKALEWLGFIRNKANGYTAEYSASVKGRFTISRDVSQNLLYLQMNILRAEDSATYYCAKDYYGSNPAWFAYWGQGTLVTVSA
VL: DILMTQTPLSLPVSLGDQASISCRSSQSIVHSSGNTFLEWYLQKPGQSPKLLIYKVSNRFSGVPDRFSGSGSGIDFTLKISRVEAEDLGVYYCFQGSHVPFTFGSGTKLEIK
notes: Raised against the N+9/C-9 peptide; also called N+9/C-9 antibody 17H6
[4]
  binding result: no binding
[5]
  binding result: no binding
[6]
  binding result: no binding
[7]
  binding result: no binding
[8]
  binding result: no binding
[9]
  binding result: no binding

B4: humanized MNC2 scFv (scFv, V domains shown)
VH: EVQLVESGGGLVKPGGSLRLSCAASGFTFSGYAMSWVRQAPGKGLEWVSTISSGGTYIYYPDSVKGRFTISRDNAKNSLYLQMNSLRAEDTAVYYCARLGGDNYYEYFDVWGKGTTVTVSS
VL: DIVLTQSPASLAVSPGQRATITCRASKSVSTSGYSYMHWYQQKPGQPPKLLIYLASNLESGVPARFSGSGSGTDFTLTINPVEANDTANYYCQHSRELPFTFGGGTKVEIKR
notes: also called huMNC2scFv; huMNC2 scFv
[10]
  EC50: ~333 nM

B5: humanized MNC3 scFv-Fc (Fc fusion)
VH: QVQLVQSGAEVKKPGASVKVSCKASGYTFTDYAMNWVRQAPGQGLEWMGVISTFSGNTNFNQKFKGRVTMTTDTSTSTAYMELRSLRSDDTAVYYCARSDYYGPYFDYWGQGTTLTVSS
VL: DIVMTQTPLSLSVTPGQPASISCRSSQTIVHSNGNTYLEWYLQKPGQSPQLLIYKVSNRFSGVPDRFSGSGSGTDFTLKISRVEAEDVGVYYCFQGSHVPFTFGGGTKVEIKRT
[11]
  binding result: binds
[12]
  binding result: binds
[13]
  binding result: binds

B6: monoclonal antibody 3C2B1 (antibody, V domains shown)
VH: EVMLVESGGGLVKPGGSLKLSCAASGITFSTYTMSWVRQTPEKRLEWVATISTGGDKTYYSDSVKGRFTISRDNAKNNLYLQMSSLRSEDTALYYCARGTTAMYYYAMDYWGQGTSVTVSS
VL: DIVLTQSPASLAVSLGQRATISCRASKSISTSDYNYIHWYQQKPGQPPKLLIYLASNLESGVPARFSGSGSGTDFTLNIHPVEEEDAATYYCQHSRELPLTFGAGTKLELK
notes: Raised against PSMGFR; also called MN3C2B1; anti-PSMGFR antibody 3C2B1
[14]
  binding result: binds
[15]
  binding result: binds
[16]
  binding result: no binding

B7: monoclonal antibody B9 (antibody, V domains shown)
VH: EVQVVESGGDLVKPGGSLKLSCAASGFTFSRYGMSWVRQTPDKRLEWVATISSGGTYIYYPDSVKGRFTISRDNAKNTLYLQMSSLKSEDTAMYYCARDNYGSSYDYAMDYWGQGTSVTVSS
VL: QIVLTQSPAIMSASPGEEVTLTCSASSSVSYMHWFQQRPGTSPKLWIYTTSNLASGVPARFSGSGSGTSYSLTISRMEAEDAATYYCQQRSSYPFTFGSGTKLEIK
notes: Raised against PSMGFR
[1]
  binding result: binds
[2]
  binding result: no binding
[3]
  binding result: binds

B8: monoclonal antibody 20A10 (antibody, V domains shown)
VH: EVMLVESGGGLVKPGGSLKLSCAASGFTFSTYAMSWIRQTPEKRLEWVASIGRAGSTYYSDSVKGRFTISRDNVRNILYLQMSSLRSEDTAMYYCARGPIYNDYDEFAYWGQGTLVTVSA
VL: NIMMTQSPSSLAVSAGEKVTMSCKSSQSVLYSSNQKNYLAWYQQKPGQSPKLLIYWASTRESGVPDRFTGSGSGTDFTLTISSVQAEDLAVYYCHQYLSSLTFGAGTKLELK
notes: Raised against PSMGFR; also called MN20A10; anti-PSMGFR antibody 20A10
[14]
  binding result: binds
[15]
  binding result: binds
[17]
  binding result: no binding
[18]
  binding result: no binding

B9: monoclonal antibody 28F9 (antibody, V domains shown)
VH: QVQLQQPGAELVQPGASVKLSCKASGYTFTGYFLYWVKQRPGHGLEWIGGIHPSNGDTDFNEKFKNKATLTVDISSSTAYMQLSSLTSEDSAVYYCTLLIGVYWGQGTTLTVSS
VL: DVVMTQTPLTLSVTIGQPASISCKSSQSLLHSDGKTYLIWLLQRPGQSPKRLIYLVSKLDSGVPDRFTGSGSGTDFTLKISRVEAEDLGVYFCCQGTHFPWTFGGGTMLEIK
notes: Raised against PSMGFR; also called MN28F9; anti-PSMGFR antibody 28F9
[16]
  binding result: binds
[19]
  binding result: binds
[18]
  binding result: binds
[20]
  binding result: binds

B10: monoclonal antibody 18G12 (antibody, V domains shown)
VH: QVQLQQSGAELVKPGASVKLSCKASGYTFTGYFLYWVKQRPGQGLEWIGGINPDNGGIDFNEKFRNKATLTVDKSSSTAYMQLSSLTSEDSAVYYCTLLIGNYWGQGTTLTVSS
VL: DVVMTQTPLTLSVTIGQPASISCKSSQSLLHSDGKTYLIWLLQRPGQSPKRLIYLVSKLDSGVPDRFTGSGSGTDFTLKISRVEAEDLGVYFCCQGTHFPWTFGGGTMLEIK
notes: Raised against PSMGFR; also called MN18G12; anti-PSMGFR antibody 18G12
[16]
  binding result: binds
[19]
  binding result: binds
[18]
  binding result: binds
[20]
  binding result: binds

## B11
[21]
  binding result: binds

B12: monoclonal antibody B12 (antibody, V domains shown)
VH: QAQLKESGPGLVAPSQSLSITCTVSGFSLTSYGVHWVRQPPGKGLEWLGVIWPGGSTNYNSTLMSRMRIIKDNSKSQVFLKMNSLQIDDTAMYYCARDRTPRVGAWFAYWGQGTLVTVSA
VL: IIVLTQSPASLAVSLGQRATISCRASESVATYGNNFMQWYQQKPGQPPKLLIYLASTLDSGVPARFSGSGSRTDFTLTIDPVEADDAATYYCQQNNEDPPTFGGGTKLEIK
notes: Raised against PSMGFR
[1]
  binding result: binds
[2]
  binding result: no binding
[3]
  binding result: binds

B13: monoclonal antibody 8C7F3 (antibody, V domains shown)
VH: EVMLVESGGGLVKPGGSLKLSCAASGFTFSTYAMSWVRQTPEKRLEWVAAISNGGGYTYYPDSLKGRFTISRDNAKNTLYLQMSSLRSEDTATYYCARRYYDHYFDYWGQGTALTVSS
VL: IIVLTQSPASLAVSLGQRATISCRASESVATYGNNFMQWYQQKPGQPPKLLIYLASTLDSGVPARFSGSGSRTDFTLTIDPVEADDAATYYCQQNNEDPPTFGGGTKLEIK
notes: Raised against PSMGFR
[1]
  binding result: binds
[2]
  binding result: no binding
[3]
  binding result: binds
